Numbering of substitutions follows the chain as printed. Names and notes keep the numbering of the source.
Tests used:
ccMA = assay: Intracellular ccMA sensing with CatM sensor in strain CJ184, flow cytometry; assay type: cell-based, P. putida
From the text: FIG. 14A represents the Acinetobacter baylyi CatM promoter region used for selection of ccMA sensing in P. putida KT2440. The regions that were partially diversified or completely randomized are marked ‘red’ and the mutations pursued are labeled. For example −10 and −35 sites were partially randomized for saturation, the ribosome binding site (RBS) was made compatible to the consensus sequence AAGGAG followed by eight bases to the start codon “ATG” of the reporter. Overall the library diversity was expected to be well above 60,000. Using a method similar to what has been described in Example 1-3, catM gene, diversified regulatory region, and sfgfp were inserted into the pBTL2 backbone. The completed circular plasmids, carrying Kanamycin resistance marker, were then transformed into electrocompetent cells of P. putida strain CJ184. The transformation gave well above 60,000 colonies to cover the library adequately. […] Post 16 h of growth at 30° C., the samples were analyzed on a flow cytometer (BD FACSAria III). […] Post third round of sorted population, a fraction was plated on LB agar+Kan50 plates and a few colonies evaluated for PCA, Benzoate and Catechol response, considering CJ184 strain is capable of converting them all to final product ccMA. […]

[1] = individual mutations, hydrolysis of OPs; cited from earlier work
[2] = PON1 expression and solubility from fluorescence of the cell lysate; set-up: species or system E. coli; conditions: based on the fluorescence of the cell lysate
Description: The clones were further confirmed for improved activity by using clear cell lysates that were normalized for sfGFP fluorescence (the enzyme variants expressed as sfGFP-PON1 fusion by inducing the same clones with 200 μM pNP) and assayed for activity at different concentrations of PXN. […] The most notable aspect of comparison between the in vivo activity measurements (FIG. 17D) and the in vitro measurements (FIG. 17E) is the relative ranking of the different PON1 variants. While Lib1-C3.3 did show highest Vmax in both formats of experiment, the Lib2-D12 was the lowest in both cases. […] The solubility of other PON1 variants ranged between these two extreme values.

[3] = Paraoxonase activity of purified PON1 variants (pNP absorbance 410 nm); assay type: biochemical; conditions: 400 μM PXN
Description: (§1) FIGS. 17A-17G show evolution of PON1. […] Residue positions varied in library construction are indicated. […] The circled region is magnified (inset) for easy visualization of the bright colony. […] The contrast ratio is defined as total fluorescence of the cells in the presence of PXN over the background fluorescence of the cells in the absence of PXN. […] The product, pNP, is measured by absorbance (410 nm). Error bars are standard deviation from two independent assays with different fractions from size exclusion chromatography. […] Error bars are the standard deviation of two independent assays using elution fractions from first half and second half of the chromatogram peak from size exclusion chromatography.
Finally, the gene for top PON1 variant Lib1-C3.3 (H115W, L69V, K70Q, Y71L, G73A) and the scaffold (H115W) were transferred to a pRSF-1b vector (Novagen) and expressed as a C-terminal 6×His-tagged protein. Post two-step purification using affinity column and a size exclusion chromatography, pure fractions were combined and tested for activity at varying concentrations of PXN. […]

pNP sensor = assay: Raw whole cell fluorescence with pNP sensor and sfGFP-PON1 under positive feedback regulation, flow cytometer; assay type: cell-based, E. coli; conditions: mean of duplicate cultures ± SD
From the text: FIGS. 16A-16D show ‘Catalyze’ and ‘sense’ system for hydrolysis reactions. […] UI: background fluorescence from cells without any pNP source to induce the TF; […]; pNP: TF induced by exogenously supplied pNP as a control/reference. […] Relative activity levels are distinguishable by eye.
The technique described here (referred to in this example as “smart microbial cells” or SMC; e.g., FIGS. 1A and 1B) allows for catalysis and sensing in the same microbial cell. For a practical library application, we simplified and improved the signal to noise ratio of the biosensor. This was achieved by gene fusing the PON1 to the GFP so that the TF is also regulating the catalytic enzyme expression as well (scheme shown in FIG. 1B). This fusion is expected to have three distinct effects. First, it provides positive feedback, such that more the activity, the more PON1 is expressed, and in turn further ‘feeds’ the activity. […] Second, feedback will amplify the already present correlation between activity and GFP expression. Third, for suitably chosen GFP, the fluorescence signal conveniently reports the amount of fused PON1 present, allowing normalization for specific activity.
. Based on the catalytic efficiency and the cytoplasmic concentration of the hydrolase, PXN hydrolysis results in a correlated pNP production inside the microbial cell that ultimately determines activation of the pNP sensor and accumulation of sfGFP in the cells. […] When pNP was used as an inducer, such that the expression of sfGFP-PON1 expression is independent of the catalytic efficiency of PON1, modest differences in cell fluorescence were still captured across the PON1 variants indicating V346A mutation could be detrimental to PON1 expression and stability (FIG. 16C, Table 6).

PXN = assay: Whole cell catalysis and sensing of PON1 clones at varying PXN (contrast ratio); assay type: cell-based, E. coli; conditions: scaffold PON1-H115W
Description: as §1
In order to efficiently screen the library, the biosensor/biocatalyst plasmid consisting of variants of PON1 was directly transferred to high transformation efficiency DH5α cells. […] The colony picking can further be made more stringent by using lower PXN (for example 100 μM) in the growth media and colonies selected based on the fluorescence intensity under an illuminator.
The clones were further confirmed for improved activity by using clear cell lysates that were normalized for sfGFP fluorescence (the enzyme variants expressed as sfGFP-PON1 fusion by inducing the same clones with 200 μM pNP) and assayed for activity at different concentrations of PXN. […]

B1: CatM_A9: CatM regulated promoter variant for reduced signal output, SEQ ID NO: 23 (nucleic acid)
DNA: TTATACGCCCTAATTGGTTTTATATACCTTTTTAGTATGCAAAAATACCAAATTGGTGTGGATTTTTATTATTACATTAATTTACAGTATGTAAATAGTATTTATTGAAAAGAAGATGGACCG
modifications: listed as DNA, chemistry not fully specified
- fluorescence and dose-response (ccMA; compared with CatM_C2): weaker fluorescence but very similar dose-response as the CatM_C2

B2: L69V: PON1 individual point mutation L69V from the literature (protein, UniProt P27169 2-355, looked up, variant L69V)
Serum …: AKLIALTLLGMGLALFRNHQSSYQTRLNALREVQPVELPNCNLVKGIETGSEDLEILPNGLAFISSGVKYPGIKSFNPNSPGKILLMDLNEEDPTVLELGITGSKFDVSSFNPHGISTFTDEDNAMYLLVVNHPDAKSTVELFKFQEEEKSLLHLKTIRHKLLPNLNDIVAVGPEHFYGTNDHYFLDPYLQSWEMYLGLAWSYVVYYSPSEVRVVAEGFDFANGINISPDGKYVYIAELLAHKIHVYEKHANWTLTPLKSLDFNTLVDNISVDPETGDLWVGCHPNGMKIFFYDSENPPASEVLRIQNILTEEPKVTQVYAENGTVLQGSTVASVYKGKLLIGTVFHKALYCEL
- higher catalytic efficiency over the wild-type [1]: four- to sixteen and four

B3: Lib1-C3.3: top PON1 variant (H115W, L69V, K70Q, Y71L, G73A) (protein, UniProt P27169 2-355, looked up, variant H115W L69V K70Q Y71L G73A)
Serum …: B2 Serum … with K69Q, Y70L, G72A, H114W
- protein yield compared to the scaffold [2]: 95%
- turnover number higher than the starting sequence [3]: approximately thirty
- linear rate exceeding that of PON1-H115W ([3]; at ten-fold lower protein concentration): three

B4: V346A: published PON1 variant with mutation V346A (protein, UniProt P27169 2-355, looked up, variant V346A)
Serum …: B2 Serum … with V68L, V345A
- Raw whole cell fluorescence intensity, PXN (1.6 mM) (pNP sensor; exogenous paraoxon 1.6 mM): 895 ± 39
- Raw whole cell fluorescence intensity, pNP (200 μM) (pNP sensor; induced with exogenous pNP 200 μM): 6263 ± 57
- Raw whole cell fluorescence intensity, UI (pNP sensor; uninduced, no pNP source): 174 ± 29
- higher catalytic efficiency over the wild-type [1]: four- to sixteen

B5: Lib2-D12: PON1 clone from Lib2, H115W scaffold with F222I, F292I (protein, UniProt P27169 2-355, looked up, variant H115W F222I F292I)
Serum …: B2 Serum … with V68L, H114W, F221I, F291I
- contrast ratio higher than the scaffold (PXN): 2 fold
- protein yield compared to the scaffold [2]: 50%

B6: CatM_C2.9: CatM variant V97I, G127A, T128A, L147V with weaker ccMA sensitivity, SEQ ID NO: 25 (protein)
chain: MELRHLRYFVTVVEEQSISKAAEKLCIAQPPLSRQIQKLEEELGIQLFERGFRPAKVTEAGMFFYQHAVQILTHTAQASSMAKRIATVSQTLRIGYISSLLYGLLPEIIYLFRQQNPEIHIELIECAAKDQINALKQGKIDLGFGRVKITDPAIRRIVLHKEQLKLAIHKHHHLNQFAATGVHLSQIIDEPMLLYPVSQKPNFATFIQSLFTELGLVPSKLTEIREIQLALGLVAAGEGVCIVPASAMDIGVKNLLYIPILDDDAYSPISLAVRNMDHSNYIPKILACVQEVFATHHIRPLIE
modifications: CatM_C2.9
- ccMA titer for dose-response (low sensitivity) (ccMA; CJ184): > 10 mM

Reference: patent US11739318B1, “Modified biosensors and biocatalysts and methods of use” (priority 2017, dated 2023)
